Assay type in all cases: cell-based
For one assay, the system named is mouse bone marrow cells. The experiment in a line: Inhibition of induction of MSCs, cancer-associated MSCs and M-MDSCs by FSTL1 in mouse bone marrow cells (Examples 13-15). To be noted: Example 15: 20 ng/mL FSTL1; antibody 20.0, 10.0, 5.0 or 2.5 μg/ml; 8 days; FIG. 104A. The protocol: Mouse bone marrow cells prepared in the same way as in Example 4 were supplemented with 20 ng/mL ([…], #7-34, #8-1, or #8-4), an anti-PD-L1 antibody reported to have an immunosuppression-mitigating effect, or a control antibody anti-DNP antibody and cultured under stimulation. 8 days thereafter, the number of cells was counted while the cells were stained with a PE-Cy5-labeled anti-CD45 antibody, a PE-labeled anti-ALCAM antibody, a FITC-labeled anti-CD271 antibody (Abcam plc, Cat. No. AB62122), a FITC-labeled anti-CD11b antibody (BD Pharmingen/Becton, Dickinson and Company, Cat. No. 553310), and a PE-Cy5-labeled anti-Gr1 antibody (eBioscience, Cat. No. 15-5931) in order to detect MSCs (CD45− negative cells), cancer-associated MSCs (CD45-negative, ALCAM-positive, and CD271-positive cells) which are MSCs increasing in number in association with cancer metastasis, and monocytic myeloid-derived suppressor cells (M-MDSCs: CD11b-positive, Gr1-positive, and ALCAM-positive cells) increasing in number together with cancer-associated MSCs, and the contents of the cells mentioned above were analyzed by flow cytometry using FACScan to calculate the percentage and number of MSCs per culture (FIG. 102). […]
The antibody clone (#6-55, #7, #10, #13, or #22) was evaluated for its activity by the same testing method as in Example 13. #6-55 was set as a positive control for activity. […]

Assay [1] relates to human pancreatic cancer cell line Panc1. Kind of assay: Action of anti-FSTL1 antibody under FSTL1 stimulation (Example 26). As to conditions: Panc1 stimulated with FSTL1 for 3 days; antibody 5 μg/ml. On the procedure:
Next, in order to examine how surrounding tumor cells were changed in a cancer microenvironment by receiving FSTL1 produced by Snail/FSTL1-expressing cells, and how the anti-FSTL1 antibody acts thereon, a human pancreatic cancer cell line Panc1 confirmed to express Snail or FSTL1 only slightly was stimulated with FSTL1 for 3 days. The anti-FSTL1 antibody (#6-55, 5 μg/ml) or a control antibody (aHema, 5 μg/ml) was added to this culture system, and subsequent change in cell function was analyzed in the same way as in the preceding paragraph. […] The paper also reports that FSTL1 enhances invasive capacity.

Assay [2] relates to Panc1, Panc1-snail+, MIAPaCa, MDA231, Hs294T. Kind of assay: Proliferative capacity and invasive capacity of various human tumor cells. To be noted: particularly in highly metastatic tumor cell line highly expressing Snail.
Description: (§1) Specifically, the influence of the anti-FSTL1 antibody on proliferative capacity and invasive capacity was studied using various human tumor cells, regardless of the presence or absence of the expression of Snail or FSTL1. […] After culture for 3 days, the number of cells per culture system was counted to evaluate the proliferative capacity of the cells. […] Then, the number of cells that permeated the membranes was counted under a microscope to evaluate the invasive capacity of the cells.
as §1

Data on one molecule can be found in US20180021429A1, “ANTICANCER AGENTS OR ANTIMETASTATIC AGENTS USING FSTL1 AND COMBINATION DRUG THEREOF” (PHARMA FOODS INTERNATIONAL CO., LTD., priority 2015, published 2018).

B1: #6-55: chicken-mouse chimeric anti-FSTL1 antibody clone; variable regions SEQ ID NO: 783 (light), 785 (heavy) (antibody, V domains shown)
VH: AVTLDESGGGLQTPGGALSLVCKGSGFTFTSVTMQWVRQAPGKGLEWVASVCSGSSTYYAPAVKGRATISRDNGQSTVRLQLSNLRPEDTGTYYCAKIAGRARWSCTSAAYNIDAWGHGTEVIVSS
VL: ASTQPSSVSAIPGETVKITCSGGGNNYGWYQQRSPGSAPVTVIYYNDNRPSNIPSRFSGSTSGSTSTLTITGVQADDEAIYYCGSWDSNTDSGIFGAGTTLTVL
modifications: mouse constant regions
For B1, in the assay on mouse bone marrow cells, the “inhibitory activity against the induction of MSCs, cancer-associated MSCs, and M-MDSCs by FSTL1” value is listed as “at the same level”. Further, in assay [1], the cell growth entry is listed as “the cell growth was reduced by the addition of the anti-FSTL1 antibody together with FSTL1” and the “invasive capacity enhanced by FSTL1” value was “the action thereof is canceled”. In assay [2] (Matrigel-coated transwell chamber, 4 hours), the invasive capacity entry is “strongly suppressed”. Moreover, the proliferative capacity entry in assay [2] (antibody 5 μg/ml, 3 days) is on record as “strongly suppressed”.
